Measured values taken from patent publication US20220000998A1 (STRIKE PHARMA, published 2022).

Molecular target: UU-30
Experiment: cell-based or functional assay

Binder	t1/2 (min) of UU-30 in mouse plasma (LC-MS/MS)
X-SM083-bi-12 (bispecific antibody) heavy: EVQLLESGGGLVQPGGSLRLSCAASGFTFSSYAMSWVRQAPGKGLEWVSGIGGSSSYTSYADSVKGRFTISRDNSKNTLYLQMNSLRAEDTAVYYCARYYSYHMDYWGQGTLVTVSSASTKGPSVFPLAPSSRSTSESTAALGCLVKDYFPEPVTVSWNSGALTSGVHTFPAVLQSSGLYSLSSVVTVPSSNFGTQTYTCNVDHKPSNTKVDKTVERKCCVECPPCPAPPVAGPSVFLFPPKPKDTLMISRTPEVTCVVVDVSHEDPEVQFNWYVDGVEVHNAKTKPREEQFNSTFRVVSVLTVVHQDWLNGKEYKCKVSNKGLPAPIEKTISKTKGQPREPQVYTLPPSREEMTKNQVSLTCLVKGFYPSDIAVEWESNGQPENNYKTTPPMLDSDGSFFLYSKLTVDKSRWQQGNVFSCSVMHEALHNHYTQKSLSLSPGKGGGGSGGGGSQVQLQQPGAELVMPGASVNLSCKASGYTFTDYWMHWVKQRPGQGLEWIGEIDPSDNFSNLNQNFRGKATLTVDKSSRTAFLQLSSLTSEDSAVYYCAVEDYWGQGTTLTVSSGGGGSGGGGSGGGGSGGGGSDIVMTQATPSVLVTPGEAVSISCRASRSLLHSNGITYLYWFLQRPGQSPQVLIYRMSNLVSGVPDRFSGSGSGTAFTLRISRVEAEDVGVYYCMQHLEFPYTFGGGTKLEIK light: DIQMTQSPSSLSASVGDHVTITCRASQSISSYLNWYQQKPGKAPKLLIYAASSLQSGVPSRFSGSGSGTDFTLTISSLQPEDFATYYCQQYGSAPPTFGQGTKLEIK	424 min
X-SM083-bi-9 (bispecific antibody) heavy: not shown light: DIQMTQSPSSLSASVGDHVTITCRASQSISSYLNWYQQKPGKAPKLLIYAASSLQSGVPSRFSGSGSGTDFTLTISSLQPEDFATYYCQQYGSAPPTFGQGTKLEIK	1340 min
